{"source": "patent US8785135B2", "about": "“Mutant G-protein coupled receptors and methods for selecting them” (Heptares Therapeutics Limited, priority 2007, dated 2014)", "molecules": {"B1": {"name": "V309A: NTR point mutant (protein, UniProt P20789 1-424, looked up, variant V309A)", "Neurotensin receptor type 1": "MHLNSSVPQGTPGEPDAQPFSGPQSEMEATFLALSLSNGSGNTSESDTAGPNSDLDVNTDIYSKVLVTAIYLALFVVGTVGNSVTAFTLARKKSLQSLQSTVHYHLGSLALSDLLILLLAMPVELYNFIWVHHPWAFGDAGCRGYYFLRDACTYATALNVASLSVERYLAICHPFKAKTLMSRSRTKKFISAIWLASALLAIPMLFTMGLQNRSGDGTHPGGLVCTPIVDTATVKVVIQVNTFMSFLFPMLVISILNTVIANKLTVMVHQAAEQGRVCTVGTHNGLEHSTFNMTIEPGRVQALRHGVLALRAVVIAFVVCWLPYHVRRLMFCYISDEQWTTFLFDFYHYFYMLTNALFYVSSAINPILYNLVSANFRQVFLSTLACLCPGWRHRRKKRPTFSRKPNSMSSNHAFSTSATRETLY"}, "B2": {"name": "F380A: NTR point mutant (protein, UniProt P20789 1-424, looked up, variant F380A)", "Neurotensin receptor type 1": "MHLNSSVPQGTPGEPDAQPFSGPQSEMEATFLALSLSNGSGNTSESDTAGPNSDLDVNTDIYSKVLVTAIYLALFVVGTVGNSVTAFTLARKKSLQSLQSTVHYHLGSLALSDLLILLLAMPVELYNFIWVHHPWAFGDAGCRGYYFLRDACTYATALNVASLSVERYLAICHPFKAKTLMSRSRTKKFISAIWLASALLAIPMLFTMGLQNRSGDGTHPGGLVCTPIVDTATVKVVIQVNTFMSFLFPMLVISILNTVIANKLTVMVHQAAEQGRVCTVGTHNGLEHSTFNMTIEPGRVQALRHGVLVLRAVVIAFVVCWLPYHVRRLMFCYISDEQWTTFLFDFYHYFYMLTNALFYVSSAINPILYNLVSANFRQVALSTLACLCPGWRHRRKKRPTFSRKPNSMSSNHAFSTSATRETLY"}, "B3": {"name": "N370A: NTR point mutant (protein, UniProt P20789 1-424, looked up, variant N370A)", "Neurotensin receptor type 1": "MHLNSSVPQGTPGEPDAQPFSGPQSEMEATFLALSLSNGSGNTSESDTAGPNSDLDVNTDIYSKVLVTAIYLALFVVGTVGNSVTAFTLARKKSLQSLQSTVHYHLGSLALSDLLILLLAMPVELYNFIWVHHPWAFGDAGCRGYYFLRDACTYATALNVASLSVERYLAICHPFKAKTLMSRSRTKKFISAIWLASALLAIPMLFTMGLQNRSGDGTHPGGLVCTPIVDTATVKVVIQVNTFMSFLFPMLVISILNTVIANKLTVMVHQAAEQGRVCTVGTHNGLEHSTFNMTIEPGRVQALRHGVLVLRAVVIAFVVCWLPYHVRRLMFCYISDEQWTTFLFDFYHYFYMLTNALFYVSSAINPILYALVSANFRQVFLSTLACLCPGWRHRRKKRPTFSRKPNSMSSNHAFSTSATRETLY"}, "B4": {"name": "P389A: NTR point mutant (protein, UniProt P20789 1-424, looked up, variant P389A)", "Neurotensin receptor type 1": "MHLNSSVPQGTPGEPDAQPFSGPQSEMEATFLALSLSNGSGNTSESDTAGPNSDLDVNTDIYSKVLVTAIYLALFVVGTVGNSVTAFTLARKKSLQSLQSTVHYHLGSLALSDLLILLLAMPVELYNFIWVHHPWAFGDAGCRGYYFLRDACTYATALNVASLSVERYLAICHPFKAKTLMSRSRTKKFISAIWLASALLAIPMLFTMGLQNRSGDGTHPGGLVCTPIVDTATVKVVIQVNTFMSFLFPMLVISILNTVIANKLTVMVHQAAEQGRVCTVGTHNGLEHSTFNMTIEPGRVQALRHGVLVLRAVVIAFVVCWLPYHVRRLMFCYISDEQWTTFLFDFYHYFYMLTNALFYVSSAINPILYNLVSANFRQVFLSTLACLCAGWRHRRKKRPTFSRKPNSMSSNHAFSTSATRETLY"}, "B5": {"name": "R395A: NTR point mutant (protein, UniProt P20789 1-424, looked up, variant R395A)", "Neurotensin receptor type 1": "MHLNSSVPQGTPGEPDAQPFSGPQSEMEATFLALSLSNGSGNTSESDTAGPNSDLDVNTDIYSKVLVTAIYLALFVVGTVGNSVTAFTLARKKSLQSLQSTVHYHLGSLALSDLLILLLAMPVELYNFIWVHHPWAFGDAGCRGYYFLRDACTYATALNVASLSVERYLAICHPFKAKTLMSRSRTKKFISAIWLASALLAIPMLFTMGLQNRSGDGTHPGGLVCTPIVDTATVKVVIQVNTFMSFLFPMLVISILNTVIANKLTVMVHQAAEQGRVCTVGTHNGLEHSTFNMTIEPGRVQALRHGVLVLRAVVIAFVVCWLPYHVRRLMFCYISDEQWTTFLFDFYHYFYMLTNALFYVSSAINPILYNLVSANFRQVFLSTLACLCPGWRHRAKKRPTFSRKPNSMSSNHAFSTSATRETLY"}, "B6": {"name": "F342A: NTR point mutant (protein, UniProt P20789 1-424, looked up, variant F342A)", "Neurotensin receptor type 1": "MHLNSSVPQGTPGEPDAQPFSGPQSEMEATFLALSLSNGSGNTSESDTAGPNSDLDVNTDIYSKVLVTAIYLALFVVGTVGNSVTAFTLARKKSLQSLQSTVHYHLGSLALSDLLILLLAMPVELYNFIWVHHPWAFGDAGCRGYYFLRDACTYATALNVASLSVERYLAICHPFKAKTLMSRSRTKKFISAIWLASALLAIPMLFTMGLQNRSGDGTHPGGLVCTPIVDTATVKVVIQVNTFMSFLFPMLVISILNTVIANKLTVMVHQAAEQGRVCTVGTHNGLEHSTFNMTIEPGRVQALRHGVLVLRAVVIAFVVCWLPYHVRRLMFCYISDEQWTTALFDFYHYFYMLTNALFYVSSAINPILYNLVSANFRQVFLSTLACLCPGWRHRRKKRPTFSRKPNSMSSNHAFSTSATRETLY"}, "B7": {"name": "V360A: NTR point mutant (protein, UniProt P20789 1-424, looked up, variant V360A)", "Neurotensin receptor type 1": "MHLNSSVPQGTPGEPDAQPFSGPQSEMEATFLALSLSNGSGNTSESDTAGPNSDLDVNTDIYSKVLVTAIYLALFVVGTVGNSVTAFTLARKKSLQSLQSTVHYHLGSLALSDLLILLLAMPVELYNFIWVHHPWAFGDAGCRGYYFLRDACTYATALNVASLSVERYLAICHPFKAKTLMSRSRTKKFISAIWLASALLAIPMLFTMGLQNRSGDGTHPGGLVCTPIVDTATVKVVIQVNTFMSFLFPMLVISILNTVIANKLTVMVHQAAEQGRVCTVGTHNGLEHSTFNMTIEPGRVQALRHGVLVLRAVVIAFVVCWLPYHVRRLMFCYISDEQWTTFLFDFYHYFYMLTNALFYASSAINPILYNLVSANFRQVFLSTLACLCPGWRHRRKKRPTFSRKPNSMSSNHAFSTSATRETLY"}, "B8": {"name": "H103A: NTR point mutant (protein, UniProt P20789 1-424, looked up, variant H103A)", "Neurotensin receptor type 1": "MHLNSSVPQGTPGEPDAQPFSGPQSEMEATFLALSLSNGSGNTSESDTAGPNSDLDVNTDIYSKVLVTAIYLALFVVGTVGNSVTAFTLARKKSLQSLQSTVAYHLGSLALSDLLILLLAMPVELYNFIWVHHPWAFGDAGCRGYYFLRDACTYATALNVASLSVERYLAICHPFKAKTLMSRSRTKKFISAIWLASALLAIPMLFTMGLQNRSGDGTHPGGLVCTPIVDTATVKVVIQVNTFMSFLFPMLVISILNTVIANKLTVMVHQAAEQGRVCTVGTHNGLEHSTFNMTIEPGRVQALRHGVLVLRAVVIAFVVCWLPYHVRRLMFCYISDEQWTTFLFDFYHYFYMLTNALFYVSSAINPILYNLVSANFRQVFLSTLACLCPGWRHRRKKRPTFSRKPNSMSSNHAFSTSATRETLY"}, "B9": {"name": "V313A: NTR point mutant (protein, UniProt P20789 1-424, looked up, variant V313A)", "Neurotensin receptor type 1": "MHLNSSVPQGTPGEPDAQPFSGPQSEMEATFLALSLSNGSGNTSESDTAGPNSDLDVNTDIYSKVLVTAIYLALFVVGTVGNSVTAFTLARKKSLQSLQSTVHYHLGSLALSDLLILLLAMPVELYNFIWVHHPWAFGDAGCRGYYFLRDACTYATALNVASLSVERYLAICHPFKAKTLMSRSRTKKFISAIWLASALLAIPMLFTMGLQNRSGDGTHPGGLVCTPIVDTATVKVVIQVNTFMSFLFPMLVISILNTVIANKLTVMVHQAAEQGRVCTVGTHNGLEHSTFNMTIEPGRVQALRHGVLVLRAAVIAFVVCWLPYHVRRLMFCYISDEQWTTFLFDFYHYFYMLTNALFYVSSAINPILYNLVSANFRQVFLSTLACLCPGWRHRRKKRPTFSRKPNSMSSNHAFSTSATRETLY"}, "B10": {"name": "G390A: NTR point mutant (protein, UniProt P20789 1-424, looked up, variant G390A)", "Neurotensin receptor type 1": "MHLNSSVPQGTPGEPDAQPFSGPQSEMEATFLALSLSNGSGNTSESDTAGPNSDLDVNTDIYSKVLVTAIYLALFVVGTVGNSVTAFTLARKKSLQSLQSTVHYHLGSLALSDLLILLLAMPVELYNFIWVHHPWAFGDAGCRGYYFLRDACTYATALNVASLSVERYLAICHPFKAKTLMSRSRTKKFISAIWLASALLAIPMLFTMGLQNRSGDGTHPGGLVCTPIVDTATVKVVIQVNTFMSFLFPMLVISILNTVIANKLTVMVHQAAEQGRVCTVGTHNGLEHSTFNMTIEPGRVQALRHGVLVLRAVVIAFVVCWLPYHVRRLMFCYISDEQWTTFLFDFYHYFYMLTNALFYVSSAINPILYNLVSANFRQVFLSTLACLCPAWRHRRKKRPTFSRKPNSMSSNHAFSTSATRETLY"}, "B11": {"name": "L310A: NTR point mutant (protein, UniProt P20789 1-424, looked up, variant L310A)", "Neurotensin receptor type 1": "MHLNSSVPQGTPGEPDAQPFSGPQSEMEATFLALSLSNGSGNTSESDTAGPNSDLDVNTDIYSKVLVTAIYLALFVVGTVGNSVTAFTLARKKSLQSLQSTVHYHLGSLALSDLLILLLAMPVELYNFIWVHHPWAFGDAGCRGYYFLRDACTYATALNVASLSVERYLAICHPFKAKTLMSRSRTKKFISAIWLASALLAIPMLFTMGLQNRSGDGTHPGGLVCTPIVDTATVKVVIQVNTFMSFLFPMLVISILNTVIANKLTVMVHQAAEQGRVCTVGTHNGLEHSTFNMTIEPGRVQALRHGVLVARAVVIAFVVCWLPYHVRRLMFCYISDEQWTTFLFDFYHYFYMLTNALFYVSSAINPILYNLVSANFRQVFLSTLACLCPGWRHRRKKRPTFSRKPNSMSSNHAFSTSATRETLY"}, "B12": {"name": "S373A: NTR point mutant (protein, UniProt P20789 1-424, looked up, variant S373A)", "Neurotensin receptor type 1": "MHLNSSVPQGTPGEPDAQPFSGPQSEMEATFLALSLSNGSGNTSESDTAGPNSDLDVNTDIYSKVLVTAIYLALFVVGTVGNSVTAFTLARKKSLQSLQSTVHYHLGSLALSDLLILLLAMPVELYNFIWVHHPWAFGDAGCRGYYFLRDACTYATALNVASLSVERYLAICHPFKAKTLMSRSRTKKFISAIWLASALLAIPMLFTMGLQNRSGDGTHPGGLVCTPIVDTATVKVVIQVNTFMSFLFPMLVISILNTVIANKLTVMVHQAAEQGRVCTVGTHNGLEHSTFNMTIEPGRVQALRHGVLVLRAVVIAFVVCWLPYHVRRLMFCYISDEQWTTFLFDFYHYFYMLTNALFYVSSAINPILYNLVAANFRQVFLSTLACLCPGWRHRRKKRPTFSRKPNSMSSNHAFSTSATRETLY"}}}
{"experiment": "Thermostability of NTR and mutants (3H-neurotensin binding)", "assay_type": "physicochemical", "conditions": "Ligand(+) format"}
{"molecule": "B1", "thermostability, heated in the presence of 3H-neurotensin": "improved thermostability"}
{"molecule": "B2", "thermostability, heated in the presence of 3H-neurotensin": "improved thermostability"}
{"molecule": "B3", "thermostability, heated in the presence of 3H-neurotensin": "improved thermostability"}
{"molecule": "B4", "thermostability, heated in the presence of 3H-neurotensin": "improved thermostability"}
{"molecule": "B5", "thermostability, heated in the presence of 3H-neurotensin": "improved thermostability"}
{"molecule": "B6", "thermostability, heated in the presence of 3H-neurotensin": "improved thermostability"}
{"molecule": "B7", "thermostability, heated in the presence of 3H-neurotensin": "improved thermostability"}
{"molecule": "B8", "thermostability, heated in the presence of 3H-neurotensin": "improved thermostability"}
{"molecule": "B9", "thermostability, heated in the presence of 3H-neurotensin": "improved thermostability"}
{"molecule": "B10", "thermostability, heated in the presence of 3H-neurotensin": "improved thermostability"}
{"molecule": "B11", "thermostability, heated in the presence of 3H-neurotensin": "improved thermostability"}
{"molecule": "B12", "thermostability, heated in the presence of 3H-neurotensin": "improved thermostability"}
{"experiment": "Thermostability of NTR and mutants (3H-neurotensin binding)", "assay_type": "physicochemical", "conditions": "heated in the absence of the agonist"}
{"molecule": "B8", "thermostability, 3H-neurotensin (agonist) binding after the heating step": "small but significant increase in thermostability"}
